# Starred links: 1 amine or outer side, 2 acyl side, 3 side chain; linkers in the order of their positions; H or OH if unused. Non-standard residues stand in square brackets, D forms with d. Groups on a side chain read outwards from the residue. No end group written: not given here. *: point of attachment. C20 diacid = O=C(O)CCCCCCCCCCCCCCCCCCC(=O)*; C18 diacid = O=C(O)CCCCCCCCCCCCCCCCC(=O)*; γGlu = O=C(O)[C@H](CCC(=O)[*:2])N[*:1]; αMeF = C[C@](N)(Cc1ccccc1)C(=O)O; AEEA = NCCOCCOCC(=O)O; Aib = CC(C)(N)C(=O)O
# B1: Peptide 518 (peptide)
# peptide: H[Aib]QGTFTSDVSK[αMeF]LDTK([AEEA-AEEA-γGlu-γGlu-C18 diacid])RARDFVQWLLE[Aib]G-OH
# modifications: N-terminus assumed
# SMILES: CC(C)C[C@H](NC(=O)[C@H](Cc1c[nH]c2ccccc12)NC(=O)[C@H](CCC(N)=O)NC(=O)[C@@H](NC(=O)[C@H](Cc1ccccc1)NC(=O)[C@H](CC(=O)O)NC(=O)[C@H](CCCNC(=N)N)NC(=O)[C@H](C)NC(=O)[C@H](CCCNC(=N)N)NC(=O)[C@H](CCCCNC(=O)COCCOCCNC(=O)COCCOCCNC(=O)CC[C@H](NC(=O)CC[C@H](NC(=O)CCCCCCCCCCCCCCCCC(=O)O)C(=O)O)C(=O)O)NC(=O)[C@@H](NC(=O)[C@H](CC(=O)O)NC(=O)[C@H](CC(C)C)NC(=O)[C@](C)(Cc1ccccc1)NC(=O)[C@H](CCCCN)NC(=O)[C@H](CO)NC(=O)[C@@H](NC(=O)[C@H](CC(=O)O)NC(=O)[C@H](CO)NC(=O)[C@@H](NC(=O)[C@H](Cc1ccccc1)NC(=O)[C@@H](NC(=O)CNC(=O)[C@H](CCC(N)=O)NC(=O)C(C)(C)NC(=O)[C@@H](N)Cc1c[nH]cn1)[C@@H](C)O)[C@@H](C)O)C(C)C)[C@@H](C)O)C(C)C)C(=O)N[C@@H](CC(C)C)C(=O)N[C@@H](CCC(=O)O)C(=O)NC(C)(C)C(=O)NCC(=O)O
# B2: Peptide 153 (peptide)
# peptide: H[Aib]QGTFTSDVSK[αMeF]LDSK([AEEA-AEEA-γGlu-C20 diacid])RAQDFVRWLL[Aib]E-OH
# modifications: N-terminus assumed
# SMILES: CC(C)C[C@H](NC(=O)[C@H](Cc1c[nH]c2ccccc12)NC(=O)[C@H](CCCNC(=N)N)NC(=O)[C@@H](NC(=O)[C@H](Cc1ccccc1)NC(=O)[C@H](CC(=O)O)NC(=O)[C@H](CCC(N)=O)NC(=O)[C@H](C)NC(=O)[C@H](CCCNC(=N)N)NC(=O)[C@H](CCCCNC(=O)COCCOCCNC(=O)COCCOCCNC(=O)CC[C@H](NC(=O)CCCCCCCCCCCCCCCCCCC(=O)O)C(=O)O)NC(=O)[C@H](CO)NC(=O)[C@H](CC(=O)O)NC(=O)[C@H](CC(C)C)NC(=O)[C@](C)(Cc1ccccc1)NC(=O)[C@H](CCCCN)NC(=O)[C@H](CO)NC(=O)[C@@H](NC(=O)[C@H](CC(=O)O)NC(=O)[C@H](CO)NC(=O)[C@@H](NC(=O)[C@H](Cc1ccccc1)NC(=O)[C@@H](NC(=O)CNC(=O)[C@H](CCC(N)=O)NC(=O)C(C)(C)NC(=O)[C@@H](N)Cc1c[nH]cn1)[C@@H](C)O)[C@@H](C)O)C(C)C)C(C)C)C(=O)N[C@@H](CC(C)C)C(=O)NC(C)(C)C(=O)N[C@@H](CCC(=O)O)C(=O)O
# B3: Peptide 152 (peptide)
# peptide: H[Aib]QGTFTSDVSK[αMeF]LDSK([AEEA-AEEA-γGlu-C18 diacid])RAQDFVRWLL[Aib]E-OH
# modifications: N-terminus assumed
# SMILES: CC(C)C[C@H](NC(=O)[C@H](Cc1c[nH]c2ccccc12)NC(=O)[C@H](CCCNC(=N)N)NC(=O)[C@@H](NC(=O)[C@H](Cc1ccccc1)NC(=O)[C@H](CC(=O)O)NC(=O)[C@H](CCC(N)=O)NC(=O)[C@H](C)NC(=O)[C@H](CCCNC(=N)N)NC(=O)[C@H](CCCCNC(=O)COCCOCCNC(=O)COCCOCCNC(=O)CC[C@H](NC(=O)CCCCCCCCCCCCCCCCC(=O)O)C(=O)O)NC(=O)[C@H](CO)NC(=O)[C@H](CC(=O)O)NC(=O)[C@H](CC(C)C)NC(=O)[C@](C)(Cc1ccccc1)NC(=O)[C@H](CCCCN)NC(=O)[C@H](CO)NC(=O)[C@@H](NC(=O)[C@H](CC(=O)O)NC(=O)[C@H](CO)NC(=O)[C@@H](NC(=O)[C@H](Cc1ccccc1)NC(=O)[C@@H](NC(=O)CNC(=O)[C@H](CCC(N)=O)NC(=O)C(C)(C)NC(=O)[C@@H](N)Cc1c[nH]cn1)[C@@H](C)O)[C@@H](C)O)C(C)C)C(C)C)C(=O)N[C@@H](CC(C)C)C(=O)NC(C)(C)C(=O)N[C@@H](CCC(=O)O)C(=O)O
# B4: Peptide 33 (peptide)
# peptide: H[Aib]QGTFTSDVSK[αMeF]LDSK([AEEA-AEEA-γGlu-C18 diacid])RAQDFVQWLE[Aib]T-OH
# modifications: N-terminus assumed
# SMILES: CC(C)C[C@H](NC(=O)[C@H](Cc1c[nH]c2ccccc12)NC(=O)[C@H](CCC(N)=O)NC(=O)[C@@H](NC(=O)[C@H](Cc1ccccc1)NC(=O)[C@H](CC(=O)O)NC(=O)[C@H](CCC(N)=O)NC(=O)[C@H](C)NC(=O)[C@H](CCCNC(=N)N)NC(=O)[C@H](CCCCNC(=O)COCCOCCNC(=O)COCCOCCNC(=O)CC[C@H](NC(=O)CCCCCCCCCCCCCCCCC(=O)O)C(=O)O)NC(=O)[C@H](CO)NC(=O)[C@H](CC(=O)O)NC(=O)[C@H](CC(C)C)NC(=O)[C@](C)(Cc1ccccc1)NC(=O)[C@H](CCCCN)NC(=O)[C@H](CO)NC(=O)[C@@H](NC(=O)[C@H](CC(=O)O)NC(=O)[C@H](CO)NC(=O)[C@@H](NC(=O)[C@H](Cc1ccccc1)NC(=O)[C@@H](NC(=O)CNC(=O)[C@H](CCC(N)=O)NC(=O)C(C)(C)NC(=O)[C@@H](N)Cc1c[nH]cn1)[C@@H](C)O)[C@@H](C)O)C(C)C)C(C)C)C(=O)N[C@@H](CCC(=O)O)C(=O)NC(C)(C)C(=O)N[C@H](C(=O)O)[C@@H](C)O
# B5: Peptide 519 (peptide)
# peptide: H[Aib]QGTFTSDVSK[αMeF]LDTK([γGlu-γGlu-AEEA-AEEA-γGlu-γGlu-C18 diacid])RARDFVQWLLE[Aib]G-OH
# modifications: N-terminus assumed
# SMILES: CC(C)C[C@H](NC(=O)[C@H](Cc1c[nH]c2ccccc12)NC(=O)[C@H](CCC(N)=O)NC(=O)[C@@H](NC(=O)[C@H](Cc1ccccc1)NC(=O)[C@H](CC(=O)O)NC(=O)[C@H](CCCNC(=N)N)NC(=O)[C@H](C)NC(=O)[C@H](CCCNC(=N)N)NC(=O)[C@H](CCCCNC(=O)CC[C@H](NC(=O)CC[C@H](NC(=O)COCCOCCNC(=O)COCCOCCNC(=O)CC[C@H](NC(=O)CC[C@H](NC(=O)CCCCCCCCCCCCCCCCC(=O)O)C(=O)O)C(=O)O)C(=O)O)C(=O)O)NC(=O)[C@@H](NC(=O)[C@H](CC(=O)O)NC(=O)[C@H](CC(C)C)NC(=O)[C@](C)(Cc1ccccc1)NC(=O)[C@H](CCCCN)NC(=O)[C@H](CO)NC(=O)[C@@H](NC(=O)[C@H](CC(=O)O)NC(=O)[C@H](CO)NC(=O)[C@@H](NC(=O)[C@H](Cc1ccccc1)NC(=O)[C@@H](NC(=O)CNC(=O)[C@H](CCC(N)=O)NC(=O)C(C)(C)NC(=O)[C@@H](N)Cc1c[nH]cn1)[C@@H](C)O)[C@@H](C)O)C(C)C)[C@@H](C)O)C(C)C)C(=O)N[C@@H](CC(C)C)C(=O)N[C@@H](CCC(=O)O)C(=O)NC(C)(C)C(=O)NCC(=O)O
# Target: human GLP-1 receptor (human, UniProt P43220)
# Test: cell-based or functional assay
row,cAMP production EC50,Binder
1,31 pM,B1
2,41.2 pM,B2
3,11.9 pM,B3
4,213 pM,B4
5,48 pM,H[Aib]QGTFTSDVSK[αMeF]LDSK([AEEA-AEEA-γGlu-C18 diacid])RARDFVRWLL[Aib]TE-OH (also: αMePhe at 23 (V)) [Peptide 166]
6,543 pM,H[Aib]QGTFTSDVSK[αMeF]LDTKRARDFVQWLLE[Aib]G-OH (not fully specified (residue 17)) [Peptide 520]
7,172 pM,B5

# Target: human glucagon receptor (human, UniProt P47871)
# Test: cell-based or functional assay
row,cAMP production EC50,Binder
1,77.3 pM,B1
2,99 pM,B2
3,20.4 pM,B3
4,548 pM,B4
5,270 pM,H[Aib]QGTFTSDVSK[αMeF]LDSK([AEEA-AEEA-γGlu-C18 diacid])RARDFVRWLL[Aib]TE-OH (also: αMePhe at 23 (V)) [Peptide 166]
6,1620 pM,H[Aib]QGTFTSDVSK[αMeF]LDTKRARDFVQWLLE[Aib]G-OH (not fully specified (residue 17)) [Peptide 520]
7,386 pM,B5

# From US12630600B2 (MEDIMMUNE LIMITED, priority 2022, dated 2026)
